From PMC6333409, “Crystal structure of chloramphenicol-metabolizing enzyme EstDL136 from a metagenome” (PLoS ONE, 2019)

These substances were tested on CC(=O)Oc1ccc([N+](=O)[O-])cc1 (assay: purified protein). Conditions: 50 mM Tris pH 8.0, 30°C, ~2 nM enzyme, value in parentheses is standard error.
Type: biochemical, uncultured bacterium pDL136

Substance | Km | kcat [s⁻¹] | kcat/Km [M⁻¹ s⁻¹]
EstDL136 (wild-type full-length) (uncultured bacterium pDL136; F214A) | 0.55 (0.051) mM | 641 | 1.2e+06
EstDL136 (wild-type full-length) (uncultured bacterium pDL136) | 0.14 (0.016) mM | 622 | 4.4e+06
EstDL136 (wild-type full-length) (uncultured bacterium pDL136; L206A) | 0.40 (0.030) mM | 547 | 1.4e+06
